Experimental data taken from patent publication US20220040297A1 (Chugai, published 2022).
Substitutions are numbered along the chain they refer to. Numbers in names are those of the source.

B1: GLS3000 F55K (antibody, IgG1, name in Kabat numbering, V domains shown)
VH: QVQLVESGGGVVQPGRSLRLSCAASGFTFSNAWMHWVRQAPGKGLEWVAQIKAKSNNYATYYAESVKGRFTISRDDSKNSLYLQMNSLKTEDTAVYYCRYVHYGAYYGVDAWGQGTTVTVSS
VL: DIVMTQSPLSLPVTPGEPASISCRSSQSLVHSNRNTYLHWYQQKPGQAPRLLIYKVSNRKSGVPDRFSGSGSGTDFTLKISRVEAEDVGVYYCGQGTQVPYTFGQGTKLEIK
B2: GLS3000 R45Q (antibody, IgG1, name in Kabat numbering, V domains shown)
VH: B1 VH
VL: B1 VL with R50Q, K60F
B3: GLS3000 G89Y (antibody, IgG1, name in Kabat numbering, V domains shown)
VH: B1 VH
VL: B1 VL with K60F, G94Y
B4: GLS3000 H34R (antibody, IgG1, name in Kabat numbering, V domains shown)
VH: B1 VH
VL: B1 VL with H39R, K60F
B5: GLS3000 G91S (antibody, IgG1, name in Kabat numbering, V domains shown)
VH: B1 VH
VL: B1 VL with K60F, G96S
B6: GLS3000 G89W (antibody, IgG1, name in Kabat numbering, V domains shown)
VH: B1 VH
VL: B1 VL with K60F, G94W
B7: GLS3000 N28D (antibody, IgG1, name in Kabat numbering, V domains shown)
VH: B1 VH
VL: B1 VL with N33D, K60F
B8: GLS3000 G89A (antibody, IgG1, name in Kabat numbering, V domains shown)
VH: B1 VH
VL: B1 VL with K60F, G94A
B9: GLS3000 V27cE (antibody, IgG1, name in Kabat numbering, V domains shown)
VH: B1 VH
VL: B1 VL with V30E, K60F
B10: GLS3000 S27eL (antibody, IgG1, name in Kabat numbering, V domains shown)
VH: B1 VH
VL: B1 VL with S32L, K60F
B11: GLS3000 S27eE (antibody, IgG1, name in Kabat numbering, V domains shown)
VH: B1 VH
VL: B1 VL with S32E, K60F
B12: GLS3000 Q90Y (antibody, IgG1, name in Kabat numbering, V domains shown)
VH: B1 VH
VL: B1 VL with K60F, Q95Y
B13: GLS3000 L33P (antibody, IgG1, name in Kabat numbering, V domains shown)
VH: B1 VH
VL: B1 VL with L38P, K60F
B14: GLS3000 P95E (antibody, IgG1, name in Kabat numbering, V domains shown)
VH: B1 VH
VL: B1 VL with K60F, P100E
B15: GLS3000 T92Y (antibody, IgG1, name in Kabat numbering, V domains shown)
VH: B1 VH
VL: B1 VL with K60F, T97Y
B16: GLS3000 S25E (antibody, IgG1, name in Kabat numbering, V domains shown)
VH: B1 VH
VL: B1 VL with S25E, K60F
B17: GLS3000 R45D (antibody, IgG1, name in Kabat numbering, V domains shown)
VH: B1 VH
VL: B1 VL with R50D, K60F
B18: GLS3000 R29V (antibody, IgG1, name in Kabat numbering, V domains shown)
VH: B1 VH
VL: B1 VL with R34V, K60F
B19: GLS3000 N30Y (antibody, IgG1, name in Kabat numbering, V domains shown)
VH: B1 VH
VL: B1 VL with N35Y, K60F
B20: GLS3000 L27bE (antibody, IgG1, name in Kabat numbering, V domains shown)
VH: B1 VH
VL: B1 VL with L29E, K60F
B21: GLS3000 R45E (antibody, IgG1, name in Kabat numbering, V domains shown)
VH: B1 VH
VL: B1 VL with R50E, K60F
B22: GLS3000 H34M (antibody, IgG1, name in Kabat numbering, V domains shown)
VH: B1 VH
VL: B1 VL with H39M, K60F
B23: GLS3000 H34E (antibody, IgG1, name in Kabat numbering, V domains shown)
VH: B1 VH
VL: B1 VL with H39E, K60F
B24: CE115HA000 Y59S (antibody, name in Kabat numbering, V domains shown)
VH: B1 VH with Y62S
VL: B1 VL with K60F
B25: CE115HA000 Y100aS (antibody, name in Kabat numbering, V domains shown)
VH: B1 VH with Y107S
VL: B1 VL with K60F
B26: CE115HA000 Y100D (antibody, name in Kabat numbering, V domains shown)
VH: B1 VH with Y106D
VL: B1 VL with K60F
B27: CE115HA000 Y59E (antibody, name in Kabat numbering, V domains shown)
VH: B1 VH with Y62E
VL: B1 VL with K60F
B28: CE115HA000 Y58K (antibody, name in Kabat numbering, V domains shown)
VH: B1 VH with Y61K
VL: B1 VL with K60F
B29: CE115HA000 Y100aG (antibody, name in Kabat numbering, V domains shown)
VH: B1 VH with Y107G
VL: B1 VL with K60F
B30: CE115HA000 Y58N (antibody, name in Kabat numbering, V domains shown)
VH: B1 VH with Y61N
VL: B1 VL with K60F
B31: CE115HA000 Y97D (antibody, name in Kabat numbering, V domains shown)
VH: B1 VH with Y103D
VL: B1 VL with K60F
B32: CE115HA000 Y100W (antibody, name in Kabat numbering, V domains shown)
VH: B1 VH with Y106W
VL: B1 VL with K60F
B33: CE115HA000 Y58Q (antibody, name in Kabat numbering, V domains shown)
VH: B1 VH with Y61Q
VL: B1 VL with K60F
B34: CE115HA000 Y58S (antibody, name in Kabat numbering, V domains shown)
VH: B1 VH with Y61S
VL: B1 VL with K60F
B35: CE115HA000 Y100P (antibody, name in Kabat numbering, V domains shown)
VH: B1 VH with Y106P
VL: B1 VL with K60F
B36: CE115HA000 Y59A (antibody, name in Kabat numbering, V domains shown)
VH: B1 VH with Y62A
VL: B1 VL with K60F
B37: CE115HA000 Y100A (antibody, name in Kabat numbering, V domains shown)
VH: B1 VH with Y106A
VL: B1 VL with K60F
B38: CE115HA000 Y100aQ (antibody, name in Kabat numbering, V domains shown)
VH: B1 VH with Y107Q
VL: B1 VL with K60F
B39: CE115HA000 Y100aH (antibody, name in Kabat numbering, V domains shown)
VH: B1 VH with Y107H
VL: B1 VL with K60F
B40: CE115HA000 Y58L (antibody, name in Kabat numbering, V domains shown)
VH: B1 VH with Y61L
VL: B1 VL with K60F
B41: CE115HA000 Y59D (antibody, name in Kabat numbering, V domains shown)
VH: B1 VH with Y62D
VL: B1 VL with K60F
B42: CE115HA000 Y100Q (antibody, name in Kabat numbering, V domains shown)
VH: B1 VH with Y106Q
VL: B1 VL with K60F
B43: CE115HA000 Y100aF (antibody, name in Kabat numbering, V domains shown)
VH: B1 VH with Y107F
VL: B1 VL with K60F
B44: CE115HA000 Y97P (antibody, name in Kabat numbering, V domains shown)
VH: B1 VH with Y103P
VL: B1 VL with K60F
B45: CE115HA000 Y100V (antibody, name in Kabat numbering, V domains shown)
VH: B1 VH with Y106V
VL: B1 VL with K60F

target: T1, CD3ε homodimer protein (human, UniProt P07766 23-126, limits assumed); assay: SPR, CD3e immobilized
T1 construct: Whole entry named for the human CD3 epsilon chain
T1 sequence (P07766 23-126 limits assumed): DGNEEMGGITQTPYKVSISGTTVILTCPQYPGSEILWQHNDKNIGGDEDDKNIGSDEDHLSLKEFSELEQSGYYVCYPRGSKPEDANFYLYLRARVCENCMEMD
Experimental: Each one-amino acid altered form constructed, expressed, and purified in the paragraph (6-2) was evaluated using Biacore T200 (GE Healthcare Japan Corp.). An appropriate amount of CD3ε homodimer protein was immobilized onto Sensor chip CM4 (GE Healthcare Japan Corp.) by the amine coupling method. Then, the antibody having an appropriate concentration was injected thereto as an analyte and allowed to interact with the CD3ε homodimer protein on the sensor chip. Then, the sensor chip was regenerated by the injection of 10 mmol/L glycine-HCl (pH 1.5). The assay was conducted at 25° C., and HBS-EP+ (GE Healthcare Japan Corp.) was used as a running buffer. […] Each parameter was calculated using Biacore T200 Evaluation Software (GE Healthcare Japan Corp.).
Specifically, when the amount of the GLS3000-containing antibody bound was defined as X and the amount of the L chain one-amino acid altered form bound was defined as Y, a value of Z (ratio of amounts bound)=Y/X was used.

KD ratio to GLS3000	Binder
1.22	B1
0.98	B2
1.32	B3
85800	B4
7210	B5
2.3	B6
4460	B7
1.3	B8
1.3	B9
1.66	B10
1.84	B11
36.3	B12
12.7	B13
1.61	B14
2.53	B15
6.54	B16
0.86	B17
3.25	B18
1.01	B19
26.8	B20
1.01	B21
3.36	B22
5.03	B23

target: T2, CD3ε homodimer protein (human, UniProt P07766 23-126, limits assumed, sulfo-tag or biotin label in some ECL assays); assay: SPR, CD3ε homodimer on chip;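 note: biacore SPR with antibody variants flowed as analyte over amine-coupled CD3ε homodimer on a CM chip, bound amount of each single-residue H chain variant over that of parent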
T2 construct: also called human CD3ε homodimer protein; CD3 (CD3ε)
T2 sequence (P07766 23-126 limits assumed): as above
Experimental: An appropriate amount of CD3ε homodimer protein was immobilized onto Sensor chip CM4 (GE Healthcare Japan Corp.) by the amine coupling method. Then, the antibody having an appropriate concentration was injected thereto as an analyte and allowed to interact with the CD3ε homodimer protein on the sensor chip. Then, the sensor chip was regenerated by the injection of 10 mmol/L glycine-HCl (pH 1.5). The assay was conducted at 25° C., and HBS-EP+ (GE Healthcare Japan Corp.) was used as a running buffer. […] Each parameter was calculated using Biacore T200 Evaluation Software (GE Healthcare Japan Corp.).
Specifically, when the amount of the antibody comprising CE115HA000 bound was defined as X and the amount of the H chain one-amino acid altered form bound was defined as Y, a value of Z (ratio of amounts bound)=Y/X was used.

ratio of amounts bound vs CE115HA000	Binder
0.94	B24
0.64	B25
0.52	B26
0.66	B27
0.3	B28
1.23	B29
0.33	B30
0.24	B31
1.03	B32
0.19	B33
0.18	B34
0.48	B35
0.35	B36
9.9	B37
0.56	B38
0.9	B39
0.27	B40
0.7	B41
0.8	B42
0.87	B43
0.11	B44
0.8	B45
